System: Escherichia coli TOP10
Assay: shrunken log2 fold change of peptide-encoding DNA abundance (4.5 h post-induction vs induction); higher = less antimicrobial activity (less host growth inhibition)
Details: time post-induction: 4.5 h; library: site-saturation at positions 5, 18, 19, 20
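Further: peptides expressed intracellularly from a pBAD plasmid library in pooled LB shake-flask culture, induced with 0.3% L-arabinose, DNA abundance read by NGS, three biological replicates, DESeq2 with apeglm shrinkage.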

Sequence: RRIRRRPPRLPRPRPRPRLQPRP
- shrunken log2 fold change: 0.349

Sequence: RRIRGRPPRLPRPRPRPFEMPRP
- shrunken log2 fold change: 0.396

Sequence: RRIRQRPPRLPRPRPRPCCKPRP
- shrunken log2 fold change: -0.00783

Sequence: RRIRMRPPRLPRPRPRPAWKPRP
- shrunken log2 fold change: 0.14

Sequence: RRIRFRPPRLPRPRPRPSCGPRP
- shrunken log2 fold change: -0.235

Sequence: RRIRMRPPRLPRPRPRPQLDPRP
- shrunken log2 fold change: 0.277

Sequence: RRIRWRPPRLPRPRPRPIIYPRP
- shrunken log2 fold change: -0.327

Sequence: RRIRSRPPRLPRPRPRPYTYPRP
- shrunken log2 fold change: -0.0783

Sequence: RRIRQRPPRLPRPRPRPMNIPRP
- shrunken log2 fold change: -0.809

Sequence: RRIRLRPPRLPRPRPRPVRLPRP
- shrunken log2 fold change: 0.576

Sequence: RRIRMRPPRLPRPRPRPPAYPRP
- shrunken log2 fold change: 0.608

Sequence: RRIRYRPPRLPRPRPRPMYTPRP
- shrunken log2 fold change: -0.597

Sequence: RRIRVRPPRLPRPRPRPSFMPRP
- shrunken log2 fold change: -0.384

Sequence: RRIRTRPPRLPRPRPRPAMTPRP
- shrunken log2 fold change: 0.126

Sequence: RRIRQRPPRLPRPRPRPEVMPRP
- shrunken log2 fold change: 0.0824

Sequence: RRIRRRPPRLPRPRPRPPPKPRP
- shrunken log2 fold change: 0.995

Sequence: RRIRWRPPRLPRPRPRPICEPRP
- shrunken log2 fold change: 0.389

Sequence: RRIRMRPPRLPRPRPRPKCDPRP
- shrunken log2 fold change: 0.318

Sequence: RRIRKRPPRLPRPRPRPMLAPRP
- shrunken log2 fold change: 0.843

Sequence: RRIRARPPRLPRPRPRPGFIPRP
- shrunken log2 fold change: -0.339

Sequence: RRIRGRPPRLPRPRPRPIKFPRP
- shrunken log2 fold change: 0.211

Sequence: RRIRHRPPRLPRPRPRPPMTPRP
- shrunken log2 fold change: -0.175

Sequence: RRIRKRPPRLPRPRPRPMDYPRP
- shrunken log2 fold change: 0.0283

Sequence: RRIRWRPPRLPRPRPRPWRCPRP
- shrunken log2 fold change: 0.144

Sequence: RRIRWRPPRLPRPRPRPYVFPRP
- shrunken log2 fold change: -0.142

Sequence: RRIRFRPPRLPRPRPRPQRCPRP
- shrunken log2 fold change: 0.08

Sequence: RRIRERPPRLPRPRPRPQQSPRP
- shrunken log2 fold change: -0.05

Sequence: RRIRIRPPRLPRPRPRPHVCPRP
- shrunken log2 fold change: 0.41

Sequence: RRIRWRPPRLPRPRPRPGKEPRP
- shrunken log2 fold change: -0.0139

Sequence: RRIRKRPPRLPRPRPRPSTHPRP
- shrunken log2 fold change: -0.17

Sequence: RRIRPRPPRLPRPRPRPPAIPRP
- shrunken log2 fold change: 0.325

Sequence: RRIRPRPPRLPRPRPRPCEEPRP
- shrunken log2 fold change: 0.205

Sequence: RRIRFRPPRLPRPRPRPDVGPRP
- shrunken log2 fold change: -0.239

Sequence: RRIRTRPPRLPRPRPRPYPTPRP
- shrunken log2 fold change: -0.374

Sequence: RRIRYRPPRLPRPRPRPMKCPRP
- shrunken log2 fold change: -0.905

Sequence: RRIRTRPPRLPRPRPRPHRCPRP
- shrunken log2 fold change: -0.0268

Sequence: RRIRPRPPRLPRPRPRPCWWPRP
- shrunken log2 fold change: 0.742

Sequence: RRIRQRPPRLPRPRPRPMRMPRP
- shrunken log2 fold change: 0.0593

Sequence: RRIRVRPPRLPRPRPRPNPIPRP
- shrunken log2 fold change: 0.129

Sequence: RRIRWRPPRLPRPRPRPTGNPRP
- shrunken log2 fold change: 0.2

Sequence: RRIRCRPPRLPRPRPRPRKTPRP
- shrunken log2 fold change: 0.103

Sequence: RRIRTRPPRLPRPRPRPVIMPRP
- shrunken log2 fold change: -0.181

Sequence: RRIRARPPRLPRPRPRPAIYPRP
- shrunken log2 fold change: -0.0399

Sequence: RRIRHRPPRLPRPRPRPFPNPRP
- shrunken log2 fold change: -0.0913

Sequence: RRIRFRPPRLPRPRPRPLTMPRP
- shrunken log2 fold change: -0.396

Sequence: RRIRYRPPRLPRPRPRPYFEPRP
- shrunken log2 fold change: -0.58

Sequence: RRIRFRPPRLPRPRPRPQMLPRP
- shrunken log2 fold change: -0.179

Sequence: RRIRYRPPRLPRPRPRPTCQPRP
- shrunken log2 fold change: -0.0443

Sequence: RRIRKRPPRLPRPRPRPHYYPRP
- shrunken log2 fold change: -0.0852

Sequence: RRIRDRPPRLPRPRPRPLIQPRP
- shrunken log2 fold change: 0.365

Sequence: RRIRKRPPRLPRPRPRPMTSPRP
- shrunken log2 fold change: 0.0716

Sequence: RRIRARPPRLPRPRPRPKRLPRP
- shrunken log2 fold change: 0.656

Sequence: RRIRTRPPRLPRPRPRPPGEPRP
- shrunken log2 fold change: 0.318

Sequence: RRIRWRPPRLPRPRPRPCGAPRP
- shrunken log2 fold change: 0.525

Sequence: RRIRYRPPRLPRPRPRPRYFPRP
- shrunken log2 fold change: -0.212

Sequence: RRIRTRPPRLPRPRPRPEWKPRP
- shrunken log2 fold change: -0.076

Sequence: RRIRQRPPRLPRPRPRPNPDPRP
- shrunken log2 fold change: -0.0331

Sequence: RRIRTRPPRLPRPRPRPNIVPRP
- shrunken log2 fold change: -0.192

Sequence: RRIRIRPPRLPRPRPRPSMVPRP
- shrunken log2 fold change: -0.654

Sequence: RRIRNRPPRLPRPRPRPRHDPRP
- shrunken log2 fold change: 0.0353

— the supplement of paper PMC9112550, “Optimization of the antimicrobial peptide Bac7 by deep mutational scanning” (BMC Biology, 2022)
